Experimental findings from PMC11843870 are described below.

The assay has as its target Xn-XptA2 wt (A subunit, TcA, of the ABC toxin complex of Xenorhabdus nematophilus) (Xenorhabdus nematophilus). As to the kind of experiment: cryo-EM structure; single particle analysis, 1.5 mg/mL protein in 10 mM Tris, 100 mM NaCl, pH 7.5; C5 symmetry.

“Xn-XptA2 wt (A subunit, TcA, of the ABC toxin complex of Xenorhabdus nematophilus) (natural protein)”: the stoichiometry N – broadly, a count of units in the complex or per binding partner – came out at 5.
